From publication PMC10119233 (2022)

Biological target: Recombinant Fc-tagged hDLL4 (human, UniProt Q9NR61 27-529)
Assay: SPR

Recombinant Fc-tagged hDLL4, sequence (Q9NR61 27-529): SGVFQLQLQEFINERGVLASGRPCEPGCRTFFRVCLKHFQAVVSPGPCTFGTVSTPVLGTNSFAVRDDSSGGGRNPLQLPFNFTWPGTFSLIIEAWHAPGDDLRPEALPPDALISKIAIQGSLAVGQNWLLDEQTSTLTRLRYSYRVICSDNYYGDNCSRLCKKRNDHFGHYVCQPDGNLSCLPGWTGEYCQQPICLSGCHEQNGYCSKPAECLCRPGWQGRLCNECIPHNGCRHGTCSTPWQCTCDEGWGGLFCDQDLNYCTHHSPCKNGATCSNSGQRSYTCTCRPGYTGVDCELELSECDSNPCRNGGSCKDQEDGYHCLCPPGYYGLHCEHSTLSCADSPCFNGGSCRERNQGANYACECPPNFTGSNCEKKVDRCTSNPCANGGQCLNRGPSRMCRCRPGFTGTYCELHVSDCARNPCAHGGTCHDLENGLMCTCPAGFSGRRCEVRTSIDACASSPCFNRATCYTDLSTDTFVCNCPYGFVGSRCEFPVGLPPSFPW

koff: 0.0099 s⁻¹
B1: N4_(10-14)Fc, Notch4 EGF-like repeats 10–14 fused to human IgG Fc (Fc fusion)
chain: RGLLCGSFPEPCANGGTCLSLSLGQGTCQCAPGFLGETCQFPDPCQNAQLCQNGGSCQALLPAPLGLPSSPSPLTPSFLCTCLPGFTGERCQAKLEDPCPPSFCSKRGRCHIQASGRPQCSCMPGWTGEQCQLRDFCSANPCVNGGVCLATYPQIQCHCPPGFEGHACERDVNECFQDPGPCPKGTSCHNTLGSFQCLCPVGQEGPRCELRAGPCPPRGCSNGGTCQLMPEKDSTFHLCLCPPGFIGPDCEVNPDNCVSHQCQNGGTCQDGLDTYTCLCPETWTGWDCSEDVDECETQGPPHCRNGGTCQNSAGSFHCVCVSGWGGTSCEENLDDCIAATCAPGSTCIDRVGSFSCLCPPGRTGLLCHLEDMCLSQPCHGDAQCSTNPLTGSTLCLCQPGYSGPTCHQDLDECLMAQQGPSPCEHGGSCLNTPGSFNCLCPPGYTGSRCEADHNECLSQPCHPGSTCLDLLATFHCLCPPGLEGQLCEVETNECASAPCLNHADCHDLLNGFQCICLPGFSGTRCEEDIDECRSSPCANGGQCQDQPGAFHCKCLPGFEGPRCQTEVDECLSDPCPVGASCLDLPGAFFCLCPSGFTGQLCEVPLCAPNLCQPKQICKDQKDKANCLCPDGSPGCAPPEDNCTCHHGHCQRSSCVCDVGWTGPECEAELGGCISAPCAHGGTCYPQPSGYNCTCPTGYTGPTCSEEMTACHSGPCLNGGSCNPSPGGYYCTCPPSHTGPQCQTSTDYCVSAPCFNGGTCVNRPGTFSCLCAMGFQGPRCEGKLRPSCADSPCRNRATCQDSPQGPRCLCPTGYTGGSCQTLMDLCAQKPCPRNSHCLQTGPSFHCLCLQGWTGPLCNLPLSSCQKAALSQGIDVSSLCHNGGLCVDSGPSYFCHCPPGFQGSLCQDHVNPCESRPCQNGATCMAQPSGYLCQCAPGYDGQNCSKELDACQSQPCHNHGTCTPKPGGFHCACPPGFVGLRCEGDVDECLDQPCHPTGTAACHSLANAFYCQCLPGHTGQWCEVEIDPCHSQPCFHGGTCEATAGSPLGFICHCPKGFEGPTCSHRAPSCGFHHCHHGGLCLPSPKPGFPPRCACLSGYGGPDCLTPPAPKGCGPPSPCLYNGSCSETTGLGGPGFRCSCPHSSPGPRCQKPGAKGCEGRSGDGACDAGCSGPGGNWDGGDCSLGVPDPWKGCPSHSRCWLLFRDGQCHPQCDSEECLFDGYDCETPPACTPAYDQYCHDHFHNGHCEKGCNTAECGWDGGDCRPEDGDPEWGPSLALLVVLSPPALDQQLFALARVLSLTLRVGLWVRKDRDGRDMVYPYPGARAEEKLGGTRDPTYQERAAPQTQPLGKETDSLSAGFVVVMGVDLSRCGPDHPASRCPWDPGLLLRFLAAMAAVGALEPLLPGPLLAVHPHAGTAPPANQLPWPVLCSPVAGVILLALGALLVLQLIRRRRREHGALWLPPGFTRRPRTQSAPHRRRPPLGEDSIGLKALKPKAEVDEDGVVMCSGPEEGEEVGQAEETGPPSTCQLWSLSGGCGALPQAAMLTPPQESEMEAPDLDTRGPDGVTPLMSAVCCGEVQSGTFQGAWLGCPEPWEPLLDGGACPQAHTVGTGETPLHLAARFSRPTAARRLLEAGANPNQPDRAGRTPLHAAVAADAREVCQLLLRSRQTAVDARTEDGTTPLMLAARLAVEDLVEELIAAQADVGARDKWGKTALHWAAAVNNARAARSLLQAGADKDAQDNREQTPLFLAAREGAVEVAQLLLGLGAARELRDQAGLAPADVAHQRNHWDLLTLLEGAGPPEARHKATPGREAGPFPRARTVSVSVPPHGGGALPRCRTLSAGAGPRGGGACLQARTWSVDLAARGGGAYSHCRSLSGVGAGGGPTPRGRRFSAGMRGPRPNPAIMRGRYGVAAGRGGRVSTDDWPCDWVALGACGSASNIPIPPPCLTPSPERGSPQLDCGPPALQEMPINQGGEGKK
